Test results reported in article PMC7481795 (2020).

Molecular target: acid alpha-glucosidase (GAA phosphodiester) (Homo sapiens, UniProt P10253)
Assay: SPR

Kd: ~60 nM
B1: CI-MPR domains 1-5 1-726 (protein)
chain: MGAAAGRSPHLGPAPARRPQRSLLLLQLLLLVAAPGSTQAQAAPFPELCSYTWEAVDTKNNVLYKINICGSVDIVQCGPSSAVCMHDLKTRTYHSVGDSVLRSATRSLLEFNTTVSCDQQGTNHRVQSSIAFLCGKTLGTPEFVTATECVHYFEWRTTAACKKDIFKANKEVPCYVFDEELRKHDLNPLIKLSGAYLVDDSDPDTSLFINVCRDIDTLRDPGSQLRACPPGTAACLVRGHQAFDVGQPRDGLKLVRKDRLVLSYVREEAGKLDFCDGHSPAVTITFVCPSERREGTIPKLTAKSNCRYEIEWITEYACHRDYLESKTCSLSGEQQDVSIDLTPLAQSGGSSYISDGKEYLFYLNVCGETEIQFCNKKQAAVCQVKKSDTSQVKAAGRYHNQTLRYSDGDLTLIYFGGDECSSGFQRMSVINFECNKTAGNDGKGTPVFTGEVDCTYFFTWDTEYACVKEKEDLLCGATDGKKRYDLSALVRHAEPEQNWEAVDGSQTETEKKHFFINICHRVLQEGKARGCPEDAAVCAVDKNGSKNLGKFISSPMKEKGNIQLSYSDGDDCGHGKKIKTNITLVCKPGDLESAPVLRTSGEGGCFYEFEWHTAAACVLSKTEGENCTVFDSQAGFSFDLSPLTKKNGAYKVETKKYDFYINVCGPVSVSPCQPDSGACQVAKSDEKTWNLGLSNAKLSYYDGMIQLNYRGGTPYNNERHTPRATL
modifications: GAA N-glycans modified to contain only phosphodiesters
